Tested on: Escherichia coli TOP10
Experiment: shrunken log2 fold change of peptide-encoding DNA abundance (4.5 h post-induction vs induction); higher = less antimicrobial activity (less host growth inhibition)
Details: time post-induction: 4.5 h; library: site-saturation at positions 5, 18, 19, 20
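Also: peptides expressed intracellularly from a pBAD plasmid library in pooled LB shake-flask culture, induced with 0.3% L-arabinose, DNA abundance read by NGS, three biological replicates, DESeq2 with apeglm shrinkage.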

Sequence: RRIRVRPPRLPRPRPRPYSYPRP
- shrunken log2 fold change: 0.128

Sequence: RRIRERPPRLPRPRPRPANNPRP
- shrunken log2 fold change: -0.598

Sequence: RRIRKRPPRLPRPRPRPHEQPRP
- shrunken log2 fold change: -0.00968

Sequence: RRIRERPPRLPRPRPRPAEPPRP
- shrunken log2 fold change: -0.000777

Sequence: RRIRDRPPRLPRPRPRPDWHPRP
- shrunken log2 fold change: 0.0912

Sequence: RRIRCRPPRLPRPRPRPSNQPRP
- shrunken log2 fold change: -0.414

Sequence: RRIRRRPPRLPRPRPRPYCDPRP
- shrunken log2 fold change: -0.0241

Sequence: RRIRRRPPRLPRPRPRPLIWPRP
- shrunken log2 fold change: 0.192

Sequence: RRIRRRPPRLPRPRPRPCVIPRP
- shrunken log2 fold change: -0.0371

Sequence: RRIRQRPPRLPRPRPRPYTLPRP
- shrunken log2 fold change: 0.0232

Sequence: RRIRWRPPRLPRPRPRPHLYPRP
- shrunken log2 fold change: -0.125

Sequence: RRIRRRPPRLPRPRPRPKKKPRP
- shrunken log2 fold change: -0.00706

Sequence: RRIRLRPPRLPRPRPRPVNDPRP
- shrunken log2 fold change: -0.52

Sequence: RRIRIRPPRLPRPRPRPWACPRP
- shrunken log2 fold change: -0.406

Sequence: RRIRFRPPRLPRPRPRPLRDPRP
- shrunken log2 fold change: 0.717

Sequence: RRIRRRPPRLPRPRPRPKNKPRP
- shrunken log2 fold change: 0.294

Sequence: RRIRLRPPRLPRPRPRPGHHPRP
- shrunken log2 fold change: -0.2

Sequence: RRIRWRPPRLPRPRPRPAKEPRP
- shrunken log2 fold change: -0.01

Sequence: RRIRDRPPRLPRPRPRPLCHPRP
- shrunken log2 fold change: 0.0833

Sequence: RRIRWRPPRLPRPRPRPSEHPRP
- shrunken log2 fold change: -0.0852

Sequence: RRIRHRPPRLPRPRPRPWWWPRP
- shrunken log2 fold change: 0.0221

Sequence: RRIRERPPRLPRPRPRPCPTPRP
- shrunken log2 fold change: -0.204

Sequence: RRIRMRPPRLPRPRPRPRTIPRP
- shrunken log2 fold change: 0.229

Sequence: RRIRQRPPRLPRPRPRPVKGPRP
- shrunken log2 fold change: -0.0475

Sequence: RRIRCRPPRLPRPRPRPDSKPRP
- shrunken log2 fold change: -0.657

Sequence: RRIRPRPPRLPRPRPRPWMIPRP
- shrunken log2 fold change: -0.334

Sequence: RRIRCRPPRLPRPRPRPNANPRP
- shrunken log2 fold change: -0.353

Sequence: RRIRRRPPRLPRPRPRPHHFPRP
- shrunken log2 fold change: -0.196

Sequence: RRIRWRPPRLPRPRPRPRHVPRP
- shrunken log2 fold change: -0.0116

Sequence: RRIRDRPPRLPRPRPRPGMLPRP
- shrunken log2 fold change: -0.0263

Sequence: RRIRMRPPRLPRPRPRPSWNPRP
- shrunken log2 fold change: -0.15

Sequence: RRIRDRPPRLPRPRPRPRKIPRP
- shrunken log2 fold change: 0.0843

Sequence: RRIRSRPPRLPRPRPRPNKEPRP
- shrunken log2 fold change: 0.0328

Sequence: RRIRMRPPRLPRPRPRPWHAPRP
- shrunken log2 fold change: 0.098

Sequence: RRIRRRPPRLPRPRPRPEYPPRP
- shrunken log2 fold change: -0.137

Sequence: RRIRVRPPRLPRPRPRPFEMPRP
- shrunken log2 fold change: -0.572

Sequence: RRIRWRPPRLPRPRPRPPKTPRP
- shrunken log2 fold change: 0.199

Sequence: RRIRKRPPRLPRPRPRPLAHPRP
- shrunken log2 fold change: 0.551

Sequence: RRIRLRPPRLPRPRPRPVVMPRP
- shrunken log2 fold change: -0.282

Sequence: RRIRPRPPRLPRPRPRPRIQPRP
- shrunken log2 fold change: 0.389

Sequence: RRIRLRPPRLPRPRPRPFYFPRP
- shrunken log2 fold change: -0.432

Sequence: RRIRPRPPRLPRPRPRPAVAPRP
- shrunken log2 fold change: 0.416

Sequence: RRIRIRPPRLPRPRPRPPHTPRP
- shrunken log2 fold change: -0.055

Sequence: RRIRYRPPRLPRPRPRPYWIPRP
- shrunken log2 fold change: -0.222

Sequence: RRIRDRPPRLPRPRPRPCMLPRP
- shrunken log2 fold change: 1.36

Sequence: RRIRNRPPRLPRPRPRPCESPRP
- shrunken log2 fold change: -0.00141

Sequence: RRIRLRPPRLPRPRPRPGHCPRP
- shrunken log2 fold change: 0.0372

Sequence: RRIRQRPPRLPRPRPRPCTNPRP
- shrunken log2 fold change: -0.359

Sequence: RRIRLRPPRLPRPRPRPQNSPRP
- shrunken log2 fold change: -0.767

Sequence: RRIRFRPPRLPRPRPRPWMCPRP
- shrunken log2 fold change: -0.0872

Sequence: RRIRCRPPRLPRPRPRPAYAPRP
- shrunken log2 fold change: 0.00565

Sequence: RRIRCRPPRLPRPRPRPWFMPRP
- shrunken log2 fold change: -0.776

Sequence: RRIRFRPPRLPRPRPRPNDRPRP
- shrunken log2 fold change: -0.108

Sequence: RRIRRRPPRLPRPRPRPRDSPRP
- shrunken log2 fold change: -0.0748

Sequence: RRIRKRPPRLPRPRPRPRIEPRP
- shrunken log2 fold change: 0.112

Sequence: RRIRVRPPRLPRPRPRPRNRPRP
- shrunken log2 fold change: -0.338

Sequence: RRIRRRPPRLPRPRPRPIGEPRP
- shrunken log2 fold change: -0.00811

Sequence: RRIRMRPPRLPRPRPRPRRMPRP
- shrunken log2 fold change: 0.73

Sequence: RRIRLRPPRLPRPRPRPMQWPRP
- shrunken log2 fold change: 0.0515

Sequence: RRIRCRPPRLPRPRPRPVRFPRP
- shrunken log2 fold change: 0.262

Sequence: RRIRIRPPRLPRPRPRPTVGPRP
- shrunken log2 fold change: 0.152

Sequence: RRIRCRPPRLPRPRPRPSQAPRP
- shrunken log2 fold change: -0.0139

Sequence: RRIRTRPPRLPRPRPRPIWSPRP
- shrunken log2 fold change: 0.0914

Sequence: RRIRLRPPRLPRPRPRPGTFPRP
- shrunken log2 fold change: 0.0118

Sequence: RRIRWRPPRLPRPRPRPKTYPRP
- shrunken log2 fold change: -0.421

Sequence: RRIRERPPRLPRPRPRPKPNPRP
- shrunken log2 fold change: 0.0803

Sequence: RRIRVRPPRLPRPRPRPTAHPRP
- shrunken log2 fold change: 0.246

Sequence: RRIRVRPPRLPRPRPRPWKVPRP
- shrunken log2 fold change: -0.0954

Sequence: RRIRTRPPRLPRPRPRPAQNPRP
- shrunken log2 fold change: 0.323

Sequence: RRIRGRPPRLPRPRPRPWWIPRP
- shrunken log2 fold change: 0.0656

Sequence: RRIRFRPPRLPRPRPRPIFNPRP
- shrunken log2 fold change: -0.0984

Sequence: RRIRNRPPRLPRPRPRPQLAPRP
- shrunken log2 fold change: -0.123

Sequence: RRIRFRPPRLPRPRPRPIPIPRP
- shrunken log2 fold change: -0.648

Sequence: RRIRWRPPRLPRPRPRPMDKPRP
- shrunken log2 fold change: -0.194

Sequence: RRIRSRPPRLPRPRPRPANYPRP
- shrunken log2 fold change: -0.43

Sequence: RRIRRRPPRLPRPRPRPYIPPRP
- shrunken log2 fold change: -0.468

Sequence: RRIRHRPPRLPRPRPRPFYIPRP
- shrunken log2 fold change: -1.15

Sequence: RRIRSRPPRLPRPRPRPWTGPRP
- shrunken log2 fold change: -0.105

Sequence: RRIRKRPPRLPRPRPRPNYEPRP
- shrunken log2 fold change: -0.0635

Sequence: RRIRKRPPRLPRPRPRPWCFPRP
- shrunken log2 fold change: 0.164

Sequence: RRIRIRPPRLPRPRPRPTNVPRP
- shrunken log2 fold change: -0.174

Sequence: RRIRNRPPRLPRPRPRPNPQPRP
- shrunken log2 fold change: 0.166

Sequence: RRIRGRPPRLPRPRPRPGQIPRP
- shrunken log2 fold change: 0.352

Sequence: RRIRYRPPRLPRPRPRPAWYPRP
- shrunken log2 fold change: -0.687

Sequence: RRIRWRPPRLPRPRPRPMKAPRP
- shrunken log2 fold change: 0.294

Sequence: RRIRLRPPRLPRPRPRPIYIPRP
- shrunken log2 fold change: -1.1

Sequence: RRIRMRPPRLPRPRPRPNPDPRP
- shrunken log2 fold change: 0.377

Sequence: RRIRFRPPRLPRPRPRPDMIPRP
- shrunken log2 fold change: -0.241

Sequence: RRIRQRPPRLPRPRPRPKLMPRP
- shrunken log2 fold change: -0.082

Sequence: RRIRARPPRLPRPRPRPHAGPRP
- shrunken log2 fold change: 0.122

Sequence: RRIRFRPPRLPRPRPRPVWWPRP
- shrunken log2 fold change: 0.148

Sequence: RRIRMRPPRLPRPRPRPNYFPRP
- shrunken log2 fold change: 0.0511

Sequence: RRIRYRPPRLPRPRPRPGLLPRP
- shrunken log2 fold change: 0.0178

Sequence: RRIRHRPPRLPRPRPRPFPTPRP
- shrunken log2 fold change: -0.0427

Sequence: RRIRHRPPRLPRPRPRPCVGPRP
- shrunken log2 fold change: 0.116

Sequence: RRIRHRPPRLPRPRPRPPMHPRP
- shrunken log2 fold change: -0.0169

Sequence: RRIRERPPRLPRPRPRPPEHPRP
- shrunken log2 fold change: 0.114

Sequence: RRIRYRPPRLPRPRPRPETYPRP
- shrunken log2 fold change: -0.372

Sequence: RRIRMRPPRLPRPRPRPKTIPRP
- shrunken log2 fold change: 0.0873

Sequence: RRIRPRPPRLPRPRPRPKNRPRP
- shrunken log2 fold change: 0.00526

Sequence: RRIRCRPPRLPRPRPRPDDDPRP
- shrunken log2 fold change: 0.0464

Sequence: RRIRARPPRLPRPRPRPCIHPRP
- shrunken log2 fold change: -0.438

Sequence: RRIRDRPPRLPRPRPRPIQRPRP
- shrunken log2 fold change: -0.01

Sequence: RRIRFRPPRLPRPRPRPFFAPRP
- shrunken log2 fold change: 0.424

Sequence: RRIRLRPPRLPRPRPRPVCVPRP
- shrunken log2 fold change: -0.115

Sequence: RRIRERPPRLPRPRPRPALWPRP
- shrunken log2 fold change: 0.241

Sequence: RRIRLRPPRLPRPRPRPVGFPRP
- shrunken log2 fold change: 0.212

Sequence: RRIRHRPPRLPRPRPRPILKPRP
- shrunken log2 fold change: -0.348

Sequence: RRIRMRPPRLPRPRPRPDHKPRP
- shrunken log2 fold change: 0.0228

Source: the supplement of paper PMC9112550, “Optimization of the antimicrobial peptide Bac7 by deep mutational scanning” (BMC Biology, 2022)
